# Source: article PMC9769723
# Legend:
# [1] = molecular target: Trichococcus flocculiformis photolyase (TfPHR), class 2 cyclobutane pyrimidine dimer (CPDII) photolyase (Trichococcus flocculiformis); test: ITC; MicroCal ITC200; both proteins in sonication buffer (150 mM NaCl, 50 mM Tris-HCl pH 7.0) with 0.02% DDM; which protein was in the syringe is not given
# [2] = molecular target: Trichococcus flocculiformis photolyase (TfPHR), class 2 cyclobutane pyrimidine dimer (CPDII) photolyase (Trichococcus flocculiformis); test: shift of the absorption spectrum of the rhodopsin after mixing; purified TfHeR and TfPHR mixed at a 1:4 molar ratio, time-dependent absorption spectra (UV-2450 spectrometer)
# [3] = molecular target: NpSRII (Natronomonas pharaonis) (UniProt P42196); details: cited from earlier work
# UniProt P42196, sequence (P42196 whole entry): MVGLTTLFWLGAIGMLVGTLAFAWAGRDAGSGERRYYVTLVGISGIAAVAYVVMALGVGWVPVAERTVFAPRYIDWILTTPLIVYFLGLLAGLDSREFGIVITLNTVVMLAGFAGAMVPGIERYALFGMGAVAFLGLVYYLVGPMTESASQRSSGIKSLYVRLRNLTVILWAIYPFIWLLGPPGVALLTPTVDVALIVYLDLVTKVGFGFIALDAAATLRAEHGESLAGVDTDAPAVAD
# [4] = molecular target: Trichococcus flocculiformis photolyase (TfPHR), class 2 cyclobutane pyrimidine dimer (CPDII) photolyase (Trichococcus flocculiformis)
Substance,Kd [1] [µM],shift of the absorption maximum after mixing (blue shift) [2] [nm],Kd [3] [µM],"in vitro repair of UV-damaged oligo(dT)20 by TfPHR under white light (absorbance at 265 nm), with TfHeR against TfPHR alone, at saturation [4] [fold]",dH [1] [kcal/mol]
TfHeR E97Q mutant (natural protein),121,4,,,
NpHtrII (from UniProt P42259),,,0.65,,
Trichococcus flocculiformis heliorhodopsin (TfHeR) (natural protein),22,8,,3,-18.8
